US20150374794A1 (Novo Nordisk, published 2015)
Numbered stars: 1 amine (or outer) side, 2 acyl side, 3 side chain; on linkers, the order of the positions; unused ones are H or OH. Square brackets hold non-standard residues; d marks the D form. Side chains are listed from the residue outwards. Ends that are not written are not given here. * marks the point of attachment. C18 diacid = O=C(O)CCCCCCCCCCCCCCCCC(=O)*; γGlu = O=C(O)[C@H](CCC(=O)[*:2])N[*:1]; Ac4c = NC1(C(=O)O)CCC1; AEEA = NCCOCCOCC(=O)O; Aib = CC(C)(N)C(=O)O

B1: N^ε28-[(4S)-4-carboxy-4-[[(4S)-4-carboxy-4-[[2-[2-[2-[[2-[2-[2-[[(4S)-4-carboxy-4-(17-carboxyheptadecanoylamino)butanoyl]amino]ethoxy]ethoxy]acetyl]amino]ethoxy … (peptide)
peptide: H[Aib]QGTFTSDLSKYLDARRAREFVQWLLK([γGlu-γGlu-AEEA-AEEA-γGlu-C18 diacid])T-NH2
modifications: N-terminus assumed
SMILES: CC(C)C[C@H](NC(=O)[C@H](Cc1ccc(O)cc1)NC(=O)[C@H](CCCCN)NC(=O)[C@H](CO)NC(=O)[C@H](CC(C)C)NC(=O)[C@H](CC(=O)O)NC(=O)[C@H](CO)NC(=O)[C@@H](NC(=O)[C@H](Cc1ccccc1)NC(=O)[C@@H](NC(=O)CNC(=O)[C@H](CCC(N)=O)NC(=O)C(C)(C)NC(=O)[C@@H](N)Cc1c[nH]cn1)[C@@H](C)O)[C@@H](C)O)C(=O)N[C@@H](CC(=O)O)C(=O)N[C@@H](C)C(=O)N[C@@H](CCCNC(=N)N)C(=O)N[C@@H](CCCNC(=N)N)C(=O)N[C@@H](C)C(=O)N[C@@H](CCCNC(=N)N)C(=O)N[C@@H](CCC(=O)O)C(=O)N[C@@H](Cc1ccccc1)C(=O)N[C@H](C(=O)N[C@@H](CCC(N)=O)C(=O)N[C@@H](Cc1c[nH]c2ccccc12)C(=O)N[C@@H](CC(C)C)C(=O)N[C@@H](CC(C)C)C(=O)N[C@@H](CCCCNC(=O)CC[C@H](NC(=O)CC[C@H](NC(=O)COCCOCCNC(=O)COCCOCCNC(=O)CC[C@H](NC(=O)CCCCCCCCCCCCCCCCC(=O)O)C(=O)O)C(=O)O)C(=O)O)C(=O)N[C@H](C(N)=O)[C@@H](C)O)C(C)C
B2: N^ε28-[(4S)-4-carboxy-4-[[(4S)-4-carboxy-4-[[2-[2-[2-[[2-[2-[2-[[(4S)-4-carboxy-4-[[(4S)-4-carboxy-4-(17-carboxyheptadecanoylamino)butanoyl]amino]butanoyl]amino … (peptide)
peptide: H[Ac4c]QGTFTSDLSKYLDLRRAREFVQWLLK([γGlu-γGlu-AEEA-AEEA-γGlu-γGlu-C18 diacid])T-NH2
modifications: N-terminus assumed
SMILES: CC(C)C[C@H](NC(=O)[C@H](CC(=O)O)NC(=O)[C@H](CC(C)C)NC(=O)[C@H](Cc1ccc(O)cc1)NC(=O)[C@H](CCCCN)NC(=O)[C@H](CO)NC(=O)[C@H](CC(C)C)NC(=O)[C@H](CC(=O)O)NC(=O)[C@H](CO)NC(=O)[C@@H](NC(=O)[C@H](Cc1ccccc1)NC(=O)[C@@H](NC(=O)CNC(=O)[C@H](CCC(N)=O)NC(=O)C1(NC(=O)[C@@H](N)Cc2c[nH]cn2)CCC1)[C@@H](C)O)[C@@H](C)O)C(=O)N[C@@H](CCCNC(=N)N)C(=O)N[C@@H](CCCNC(=N)N)C(=O)N[C@@H](C)C(=O)N[C@@H](CCCNC(=N)N)C(=O)N[C@@H](CCC(=O)O)C(=O)N[C@@H](Cc1ccccc1)C(=O)N[C@H](C(=O)N[C@@H](CCC(N)=O)C(=O)N[C@@H](Cc1c[nH]c2ccccc12)C(=O)N[C@@H](CC(C)C)C(=O)N[C@@H](CC(C)C)C(=O)N[C@@H](CCCCNC(=O)CC[C@H](NC(=O)CC[C@H](NC(=O)COCCOCCNC(=O)COCCOCCNC(=O)CC[C@H](NC(=O)CC[C@H](NC(=O)CCCCCCCCCCCCCCCCC(=O)O)C(=O)O)C(=O)O)C(=O)O)C(=O)O)C(=O)N[C@H](C(N)=O)[C@@H](C)O)C(C)C
B3: N^ε28-[(4S)-4-carboxy-4-[[(4S)-4-carboxy-4-[[2-[2-[2-[[2-[2-[2-[[(4S)-4-carboxy-4-[[(4S)-4-carboxy-4-(17-carboxyheptadecanoylamino)butanoyl]amino]butanoyl]amino … (peptide)
peptide: H[Ac4c]QGTFTSDLSKYLDLKRAREFVQWLLK([γGlu-γGlu-AEEA-AEEA-γGlu-γGlu-C18 diacid])T-NH2
modifications: N-terminus assumed
SMILES: CC(C)C[C@H](NC(=O)[C@H](CC(=O)O)NC(=O)[C@H](CC(C)C)NC(=O)[C@H](Cc1ccc(O)cc1)NC(=O)[C@H](CCCCN)NC(=O)[C@H](CO)NC(=O)[C@H](CC(C)C)NC(=O)[C@H](CC(=O)O)NC(=O)[C@H](CO)NC(=O)[C@@H](NC(=O)[C@H](Cc1ccccc1)NC(=O)[C@@H](NC(=O)CNC(=O)[C@H](CCC(N)=O)NC(=O)C1(NC(=O)[C@@H](N)Cc2c[nH]cn2)CCC1)[C@@H](C)O)[C@@H](C)O)C(=O)N[C@@H](CCCCN)C(=O)N[C@@H](CCCNC(=N)N)C(=O)N[C@@H](C)C(=O)N[C@@H](CCCNC(=N)N)C(=O)N[C@@H](CCC(=O)O)C(=O)N[C@@H](Cc1ccccc1)C(=O)N[C@H](C(=O)N[C@@H](CCC(N)=O)C(=O)N[C@@H](Cc1c[nH]c2ccccc12)C(=O)N[C@@H](CC(C)C)C(=O)N[C@@H](CC(C)C)C(=O)N[C@@H](CCCCNC(=O)CC[C@H](NC(=O)CC[C@H](NC(=O)COCCOCCNC(=O)COCCOCCNC(=O)CC[C@H](NC(=O)CC[C@H](NC(=O)CCCCCCCCCCCCCCCCC(=O)O)C(=O)O)C(=O)O)C(=O)O)C(=O)O)C(=O)N[C@H](C(N)=O)[C@@H](C)O)C(C)C
B4: N^ε28-[(4S)-4-carboxy-4-[[(4S)-4-carboxy-4-[[2-[2-[2-[[2-[2-[2-[[(4S)-4-carboxy-4-[[(4S)-4-carboxy-4-(17-carboxyheptadecanoylamino)butanoyl]amino]butanoyl]amino … (peptide)
peptide: H[Ac4c]QGTFTSDLSKYLDLRRARDFVQWLLK([γGlu-γGlu-AEEA-AEEA-γGlu-γGlu-C18 diacid])T-NH2
modifications: N-terminus assumed
SMILES: CC(C)C[C@H](NC(=O)[C@H](CC(=O)O)NC(=O)[C@H](CC(C)C)NC(=O)[C@H](Cc1ccc(O)cc1)NC(=O)[C@H](CCCCN)NC(=O)[C@H](CO)NC(=O)[C@H](CC(C)C)NC(=O)[C@H](CC(=O)O)NC(=O)[C@H](CO)NC(=O)[C@@H](NC(=O)[C@H](Cc1ccccc1)NC(=O)[C@@H](NC(=O)CNC(=O)[C@H](CCC(N)=O)NC(=O)C1(NC(=O)[C@@H](N)Cc2c[nH]cn2)CCC1)[C@@H](C)O)[C@@H](C)O)C(=O)N[C@@H](CCCNC(=N)N)C(=O)N[C@@H](CCCNC(=N)N)C(=O)N[C@@H](C)C(=O)N[C@@H](CCCNC(=N)N)C(=O)N[C@@H](CC(=O)O)C(=O)N[C@@H](Cc1ccccc1)C(=O)N[C@H](C(=O)N[C@@H](CCC(N)=O)C(=O)N[C@@H](Cc1c[nH]c2ccccc12)C(=O)N[C@@H](CC(C)C)C(=O)N[C@@H](CC(C)C)C(=O)N[C@@H](CCCCNC(=O)CC[C@H](NC(=O)CC[C@H](NC(=O)COCCOCCNC(=O)COCCOCCNC(=O)CC[C@H](NC(=O)CC[C@H](NC(=O)CCCCCCCCCCCCCCCCC(=O)O)C(=O)O)C(=O)O)C(=O)O)C(=O)O)C(=O)N[C@H](C(N)=O)[C@@H](C)O)C(C)C
B5: N^ε28-[(4S)-4-carboxy-4-[[(4S)-4-carboxy-4-[[2-[2-[2-[[2-[2-[2-[[(4S)-4-carboxy-4-[[(4S)-4-carboxy-4-(17-carboxyheptadecanoylamino)butanoyl]amino]butanoyl]amino … (peptide)
peptide: H[Ac4c]QGTFTSDLSRYLESRRAREFVQWLLK([γGlu-γGlu-AEEA-AEEA-γGlu-γGlu-C18 diacid])T-NH2
modifications: N-terminus assumed
SMILES: CC(C)C[C@H](NC(=O)[C@H](Cc1ccc(O)cc1)NC(=O)[C@H](CCCNC(=N)N)NC(=O)[C@H](CO)NC(=O)[C@H](CC(C)C)NC(=O)[C@H](CC(=O)O)NC(=O)[C@H](CO)NC(=O)[C@@H](NC(=O)[C@H](Cc1ccccc1)NC(=O)[C@@H](NC(=O)CNC(=O)[C@H](CCC(N)=O)NC(=O)C1(NC(=O)[C@@H](N)Cc2c[nH]cn2)CCC1)[C@@H](C)O)[C@@H](C)O)C(=O)N[C@@H](CCC(=O)O)C(=O)N[C@@H](CO)C(=O)N[C@@H](CCCNC(=N)N)C(=O)N[C@@H](CCCNC(=N)N)C(=O)N[C@@H](C)C(=O)N[C@@H](CCCNC(=N)N)C(=O)N[C@@H](CCC(=O)O)C(=O)N[C@@H](Cc1ccccc1)C(=O)N[C@H](C(=O)N[C@@H](CCC(N)=O)C(=O)N[C@@H](Cc1c[nH]c2ccccc12)C(=O)N[C@@H](CC(C)C)C(=O)N[C@@H](CC(C)C)C(=O)N[C@@H](CCCCNC(=O)CC[C@H](NC(=O)CC[C@H](NC(=O)COCCOCCNC(=O)COCCOCCNC(=O)CC[C@H](NC(=O)CC[C@H](NC(=O)CCCCCCCCCCCCCCCCC(=O)O)C(=O)O)C(=O)O)C(=O)O)C(=O)O)C(=O)N[C@H](C(N)=O)[C@@H](C)O)C(C)C
B6: N^ε28-[(4S)-4-carboxy-4-[[(4S)-4-carboxy-4-[[2-[2-[2-[[2-[2-[2-[[(4S)-4-carboxy-4-[[(4S)-4-carboxy-4-(17-carboxyheptadecanoylamino)butanoyl]amino]butanoyl]amino … (peptide)
peptide: H[Ac4c]QGTFTSDLSRYLDLRRARDFVQWLLK([γGlu-γGlu-AEEA-AEEA-γGlu-γGlu-C18 diacid])T-NH2
modifications: N-terminus assumed
SMILES: CC(C)C[C@H](NC(=O)[C@H](CC(=O)O)NC(=O)[C@H](CC(C)C)NC(=O)[C@H](Cc1ccc(O)cc1)NC(=O)[C@H](CCCNC(=N)N)NC(=O)[C@H](CO)NC(=O)[C@H](CC(C)C)NC(=O)[C@H](CC(=O)O)NC(=O)[C@H](CO)NC(=O)[C@@H](NC(=O)[C@H](Cc1ccccc1)NC(=O)[C@@H](NC(=O)CNC(=O)[C@H](CCC(N)=O)NC(=O)C1(NC(=O)[C@@H](N)Cc2c[nH]cn2)CCC1)[C@@H](C)O)[C@@H](C)O)C(=O)N[C@@H](CCCNC(=N)N)C(=O)N[C@@H](CCCNC(=N)N)C(=O)N[C@@H](C)C(=O)N[C@@H](CCCNC(=N)N)C(=O)N[C@@H](CC(=O)O)C(=O)N[C@@H](Cc1ccccc1)C(=O)N[C@H](C(=O)N[C@@H](CCC(N)=O)C(=O)N[C@@H](Cc1c[nH]c2ccccc12)C(=O)N[C@@H](CC(C)C)C(=O)N[C@@H](CC(C)C)C(=O)N[C@@H](CCCCNC(=O)CC[C@H](NC(=O)CC[C@H](NC(=O)COCCOCCNC(=O)COCCOCCNC(=O)CC[C@H](NC(=O)CC[C@H](NC(=O)CCCCCCCCCCCCCCCCC(=O)O)C(=O)O)C(=O)O)C(=O)O)C(=O)O)C(=O)N[C@H](C(N)=O)[C@@H](C)O)C(C)C

How the values were obtained:
[1] = molecular target: T1, human glucagon receptor (human, UniProt P47871 26-477); assay: cell-based or functional assay
T1 sequence (P47871 26-477): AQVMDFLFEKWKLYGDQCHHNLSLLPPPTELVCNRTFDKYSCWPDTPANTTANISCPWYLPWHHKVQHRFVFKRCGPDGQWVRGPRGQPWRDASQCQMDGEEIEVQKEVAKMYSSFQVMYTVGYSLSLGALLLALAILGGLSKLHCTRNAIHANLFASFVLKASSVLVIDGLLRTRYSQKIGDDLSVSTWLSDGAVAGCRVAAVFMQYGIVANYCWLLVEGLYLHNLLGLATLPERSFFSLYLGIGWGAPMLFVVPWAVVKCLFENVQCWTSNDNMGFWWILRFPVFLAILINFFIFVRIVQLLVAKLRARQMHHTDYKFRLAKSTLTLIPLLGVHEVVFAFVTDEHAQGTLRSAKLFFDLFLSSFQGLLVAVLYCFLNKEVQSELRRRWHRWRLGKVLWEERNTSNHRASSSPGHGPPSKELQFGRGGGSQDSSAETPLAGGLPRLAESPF

[2] = molecular target: T2, human GLP-1 receptor (human, UniProt P43220 24-463); assay: cell-based or functional assay
[3] = molecular target: T1, human glucagon receptor; assay: displacement of 125I-glucagon, membranes with human glucagon receptor, SPA
Description: (§1) The receptor binding of each compound to the human glucagon receptor was measured in a displacement binding assay. […] Each derivative was added in a series of concentrations to isolated membranes containing the human glucagon receptor and displacement of the labelled ligand is monitored. The receptor binding was reported as the concentration at which half of the labelled ligand is displaced from the receptor, the IC₅₀ value.

[4] = molecular target: T2, human GLP-1 receptor; assay: displacement of 125I-GLP-1(7-36)NH2, membranes with human GLP-1R, SPA
Description: as §1, with “human GLP-1” for “human glucagon”, “ligand was” for “ligand is”

Binder | EC50 GlucR, CRE luciferase reporter gene assay in BHK cells [1] [nM] | EC50 GLP-1R, CRE luciferase reporter gene assay in BHK cells [2] [nM] | IC50 [3] [nM] | IC50 [4] [nM]
B1 | 0.002 | 0.005 | 5.6 | 0.3
H[Aib]QGTFTSDLSKYLESKRARSFVQWLLK([γGlu-γGlu-Ser-Glu-Ser-γGlu-γGlu-C18 diacid])T-NH2 | 0.068 | 0.007 | 9.5 | 0.2
B2 | 0.004 | 0.017 | 1.7 | 0.4
B3 | 0.005 | 0.017 | 1.5 | 0.2
B4 | 0.006 | 0.018 | 4.5 | 0.4
B5 | 0.017 | 0.004 | 1.4 | 0.2
B6 | 0.016 | 0.021 | 8.5 | 1.1
